Assay results published in article PMC4069162.

How the values were obtained:
Experiment in all cases: cross-linking; in vivo cross-linking with DSP in S. enterica ATCC14028SΔacrABΔmdsABC::Cm5ΔtolC::Tn10 cells coexpressing MdsA-flag, MdsB-myc and MdsC-hexahistidine (grown to OD600 = 0.8); MdsC-His isolated on a Ni-NTA resin column, cross-linked MdsA detected by anti-flag immunoblot
[1] = target: MdsC-L441R with a c-terminal hexahistidine tag (Salmonella enterica serovar Typhimurium ATCC14028S)
[2] = target: MdsC-G220A with a c-terminal hexahistidine tag (Salmonella enterica serovar Typhimurium ATCC14028S)
[3] = target: MdsC-G433A with a c-terminal hexahistidine tag (Salmonella enterica serovar Typhimurium ATCC14028S)
[4] = target: MdsC with a c-terminal hexahistidine tag (wild type) (Salmonella enterica serovar Typhimurium ATCC14028S)

| Substance | MdsA crosslinked, percent of that with wild-type MdsC [1] | MdsA crosslinked, percent of that with wild-type MdsC [2] | MdsA crosslinked, percent of that with wild-type MdsC [3] | crosslinking to MdsC, percent of wild type [4] |
| --- | --- | --- | --- | --- |
| MdsA with a c-terminal flag tag (wild type) (from UniProt A0A4P7XPD4 1-408) (natural protein) | 16% | 20% | 39% |  |
| MdsA-S146D with a c-terminal flag tag (from UniProt A0A4P7XPD4 1-408) (natural protein) |  |  |  | 16% |
